Reference: patent US20030125311A1, “Compounds capable of binding with the cytoskeleton” (priority 2002, published 2003)

System: binding sites of PREG [3H] in brain cytosol
Experiment: Effects of hydrolytic enzymes on the binding of PREG [3H] in cytosol
Parameters: species or system rat
Conditions: for % of Control (binding of PREG [3H]): cytosol incubated with enzyme at 37° C. for 30 min, mean±standard error, n=3
Description: Proteinase K (Merck, Darmstadt, Germany) and Pronase® are dissolved at 1 mg/ml in TNM buffer containing 10 mM of Tris, 0.1M of NaCl, 3 mM of MgCl2 (pH 7.4). Deoxyribonuclease I and ribonuclease A are products of Sigma-Aldrich and are respectively adjusted to 100 IU/ml and 5 IU/ml. Phospholipase A2 (Roche Molecular Biochemicals) is diluted to 20 IU/ml in TNM.
1 ml of brain cytosol is incubated with 0.2 ml of an enzyme solution at 37° C. for 30 min. The binding activity is studied of samples (0.2 ml) which had undergone the enzyme treatment or control samples diluted with buffer only.
To study the effects of hydrolytic enzymes on the binding of PREG [^3H], samples of 1 ml of cytosol incubated with 0.2 ml of an enzyme solution at 37° C. for 30 min were used. The results obtained, expressed as % of the control incubation (cytosol diluted in a buffer) are reported in Table 1 (mean±standard error, n=3).

% of Control (binding of PREG [3H]) | effect on binding sites of PREG [3H] (in words) (enzyme treatment of cytosol) | binding sites of PREG [3H] destroyed (enzyme treatment of cytosol) | Molecule
82.4 ± 9.2% | no significant effect |  | Ribonuclease A: hydrolytic enzyme (Sigma-Aldrich) used to treat cytosol (protein, UniProt P61823 27-150, looked up) Ribonuclease pancreatic: KETAAAKFERQHMDSSTSAASSSNYCNQMMKSRNLTKDRCKPVNTFVHESLADVQAVCSQKNVACKNGQTNCYQSYSTMSITDCRETGSSKYPNCAYKTTQANKHIIVACEGNPYVPVHFDASV
42.4 ± 7.5% |  | 60% | Proteinase K: hydrolytic enzyme (Merck) used to treat cytosol (protein, UniProt P06873 106-384, looked up) Proteinase K: AAQTNAPWGLARISSTSPGTSTYYYDESAGQGSCVYVIDTGIEASHPEFEGRAQMVKTYYYSSRDGNGHGTHCAGTVGSRTYGVAKKTQLFGVKVLDDNGSGQYSTIIAGMDFVASDKNNRNCPKGVVASLSLGGGYSSSVNSAAARLQSSGVMVAVAAGNNNADARNYSPASEPSVCTVGASDRYDRRSSFSNYGSVLDIFGPGTSILSTWIGGSTRSISGTSMATPHVAGLAAYLMTLGKTTAASACRYIADTANKGDLSNIPFGTVNLLAYNNYQA
